The nature of data set [1]: Renaturation of urea-solubilized 19 kDa protein with glycerol, luminescence activity. It is filed as biochemical. Particulars: for Luminescence Activity: 25° C., 30 minutes; for Luminescence Activity, relative value in parentheses: relative to 0 % glycerol. As for the experimental part:
E. coli cells constructed in Example 12 which contain the expression vector pHis-KAZ and express the 19 kDa protein were disrupted by the sonication in 20 ml of a buffer comprising 20 mM Tris-HCl, pH 7.5. After centrifugation (12,000×g, 20 minutes), the precipitated fraction was subjected to the solubilization by treating with 20 ml of 20, mM Tris-HCl, pH 7.5 containing 8 M urea and then centrifuged (12,000×g, 20 minutes) to afford a soluble fraction. […] Subsequently, the soluble fraction was subjected to the nickel-chelated column chromatography and the desired protein was eluted by the linear gradient of imidazole from 0 to 0.3 M to give approximately 95% purity.
Consequently, the protein was subjected to the renaturation step by treating with glycerol (the final concentration: from 0 to 90% (v/w)) as a solvent at 25° C. for 30 minutes to afford the 19 kDa protein renatured. As described above, the intensity of the luminescence was measured by the luminometer.

Data set [2] can be described thus: Luminescence activity after expression in COS7 cells, bisdeoxy-coelenterazine substrate. Format: cell-based. The procedure: (§1) Expression of the proteins as a component of Oplophorus luciferase in mammalian cultured cells COS7 was conducted using the expression plasmids pKAZ-CMV, PSKAZ-CMV, pOL-CMV and pSOL-CMV constructed in Example 10 and pRL-CMV expressing Renilla luciferase as a control for the transfection of the host. COS7 cells (2×10^5 cells) were grown in a 35 mm well-plate containing 3 ml of Dulbecco's modified Eagle's media (Gibco BRL, Rockville, Md., USA) supplemented with 10% (v/v) heat-inactivated fetal calf serum (Gibco BRL), 100 U/ml penicillin and 100 μg/ml of streptomycin. The cells were cultured at 37° C. for 24 hours and then transfected with 2 μg of each plasmid DNA using FuGENE6 transfection reagent (Rosche Diagnostics, Mannheim, Germany). After further incubation for 36 hours, cells were separated from cultured media by centrifugation. The separated cells were suspended in 0.5 ml of phosphate-buffered saline, and subjected to repeated freeze-thawing at a temperature between 37° C. and −80° C. to obtain a cell extract. One μg of coelenterazine or bisdeoxy-coelenterazine was added as a substrate into the cell extract and the intensity of the luminescence was measured by the luminometer.

Data set [3] can be described thus: Luminescence activity of proteins expressed in cell-free in vitro transcription-translation system. Format: biochemical. The following applies: no microsomal membrane (−); 1 μg coelenterazine. The source says:
Using the expression vector, pKAZ-CMV, PSKAZ-CMV, pOL-CMV or pSOL-CMV prepared in Example 10, the 19 kDa or 35 kDa protein constituting Oplophorus luciferase was expressed by means of the in vitro transcription-translation system. As a positive control, pRL-CMV expressing Renilla luciferase was used. The in vitro transcription-translation system is capable of producing a protein from a recombinant plasmid or mRNA prepared from the plasmid and is particularly useful for the luminescence system with high sensitivity for the detection. In this Example, a commercially available in vitro translation kit (TNT in vitro transcription/translation kit; Promega) was used. A fraction of microsomal membranes capable of cleaving the signal sequence for secretion was also added in order to confirm the existence of the signal sequence in the expressed proteins. The in vitro translation mixture (25 μl in total) containing 0.5 μg of the plasmid DNA, 20 μl of rabbit reticulocyte lysate, 1 μl of 1 mM methionine and 2.5 μl of microsomal membranes was incubated at 30° C. for 90 min and then 1 μl of the mixture was subjected to the measurement of its luminescent activity. […] The reaction was started by the addition of a test sample and the intensity of the luminescence was measured by the luminometer.

Data set [4] is described as follows: Luminescence activity after expression in COS7 cells, coelenterazine substrate. It is filed as cell-based. Particulars: for Luminescence activity in Cell extracts, Coelenterazine: COS7 cell extracts; for Luminescence activity in Medium, Coelenterazine: COS7 culture medium. As for the experimental part: as §1
A short description of data set [5]: Preservation test of renatured 19 kDa protein, luminescence activity. Particulars: for luminescence activity on preservation: 4° C.; for Luminescence activity after preservation: 4 ° C. It is filed as biochemical. As for the experimental part:
Subsequently, the 19 kDa protein renatured was subjected to the preservation test, which comprises preserving the protein in the absence or presence of 50% (v/w) or 70% (v/w) glycerol at 4° C. for 30 days and then measuring its luminescence activity as mentioned above.

B1: 19 kDa Protein: 19 kDa photoprotein component of Oplophorus luciferase, positions 28–196 of SEQ ID NO: 2, without signal sequence (protein, listed as Oplophorus gracilorostris)
chain: FTLADFVGDWQQTAGYNQDQVLEQGGLSSLFQALGVSVTPIQKVVLSGENGLKADIHVIIPYEGLSGFQMGLIEMIFKVVYPVDDHHFKIILHYGTLVIDGVTPNMIDYFGRPYPGIAVFDGKQITVTGTLWNGNKIYDERLINPDGSLLFRVTINGVTGWRLCENILA
Turning to B1, the “luminescence activity before renaturation” value in data set [1] (after 8 M urea solubilization and nickel-chelated column, before glycerol) is given as “no luminescence activity”. Moreover, the “Luminescence Activity” value in data set [1] (glycerol 0 % v/w) is 83 rlu; in data set [1] (glycerol 10 % v/w) it was 147 rlu; in data set [1] (glycerol 20 % v/w), 375 rlu; in data set [1] (glycerol 30 % v/w), 1,258 rlu; in data set [1] (glycerol 40 % v/w), 1,818 rlu; in data set [1] (glycerol 50 % v/w) it was 3,822 rlu. Moreover, the “Luminescence Activity” value is 4,860 rlu in data set [1] (glycerol 60 % v/w); 4,462 rlu in data set [1] (glycerol 70 % v/w); 2,842 rlu in data set [1] (glycerol 80 % v/w); 2,536 rlu in data set [1] (glycerol 90 % v/w); 1242.0 rlu in data set [3]. Also, the “Luminescence Activity, relative value in parentheses” value in data set [1] (glycerol 0 % v/w) was “(1.0)”; in data set [1] (glycerol 10 % v/w), “(1.8)”; in data set [1] (glycerol 20 % v/w) it was “(4.5)”; in data set [1] (glycerol 30 % v/w), “(15.2)”; in data set [1] (glycerol 40 % v/w), “(24.9)”; in data set [1] (glycerol 50 % v/w), “(46.0)”. The “Luminescence Activity, relative value in parentheses” value is recorded as “(58.6)” in data set [1] (glycerol 60 % v/w), “(53.8)” in data set [1] (glycerol 70 % v/w), “(34.2)” in data set [1] (glycerol 80 % v/w) and “(30.6)” in data set [1] (glycerol 90 % v/w). Besides, the “Luminescence activity in Cell extracts, Bisdeoxy-coelenterazine” value in data set [2] is recorded as 2,124.0 rlu. In data set [4], the “Luminescence activity in Cell extracts, Coelenterazine” value is 2,273.0 rlu. Besides, in data set [4] (COS7 cells), the “luminescent intensity compared with pRL-CMV” value was “equivalent to that from pRL-CMV”. Moreover, the “Luminescence activity in Medium, Coelenterazine” value in data set [4] is 3.62 rlu. Besides, the “luminescence activity on preservation” value was “significantly decreased” in data set [5] (absence of glycerol, 30 days) and “maintained without decreasing” in data set [5] (presence of glycerol (50% or 70% v/w), 30 days). In addition, the “Luminescence activity after preservation” value is 102 rlu in data set [5] (glycerol 0 % v/w, 0 day); 23 rlu in data set [5] (glycerol 0 % v/w, 30 days); 3,840 rlu in data set [5] (glycerol 50 % v/w, 0 day); 3,734 rlu in data set [5] (glycerol 50 % v/w, 30 days).

B2: 35 kDa Protein: 35 kDa protein component of Oplophorus luciferase, positions 40–359 of SEQ ID NO: 4, without signal sequence (protein, listed as Oplophorus gracilorostris)
chain: AVACPAAEDIAPCTCKVGEGDVMDMDCSKVTSDAELASIFSKTFPSNTFRELFIEFNREITTLTADSLGAATFTKIAITSCTQLKTIEENAFMASAATLEKLVLLKNDLSSFPFEEMSQYTKLNWLELSVNSITGWPALSSDTLANLILFRNPIGNIPVDAFQTLPNIEQFNCFDCSITEVEAGTFTRSPKLQKLVLGYNGLTSLPVGAIKLHGHGPTTSNLGITNNQIISFPEGAVEGIQGILGIDFNRVTSLSEEVWRPILENLFQFSLLNNPLACVCDVMWLIDSPELLAKIKGNPRCAGGKRLKNLDPAVFHAMCQ
For B2, the “Luminescence activity in Cell extracts, Bisdeoxy-coelenterazine” value in data set [2] is less than 0.001 rlu. Besides, in data set [3], the Luminescence Activity is reported as less than 0.001 rlu. For the same molecule, in data set [4], the “Luminescence activity in Cell extracts, Coelenterazine” value is less than 0.001 rlu and the “Luminescence activity in Medium, Coelenterazine” value is reported as 2.45 rlu.

The values above are taken from patent US7125697B2, “Luciferase and photoprotein” (Chisso Corporation, priority 2000, dated 2006).
